Data published in patent US20140087995A1 (published 2014).
Numbered stars: 1 amine (or outer) side, 2 acyl side, 3 side chain; on linkers, the order of the positions; unused ones are H or OH. Bridge positions count the residues as written; N and C are the ends. Side chains are listed from the residue outwards. Ends that are not written are not given here. * marks the point of attachment. C20 diacid = O=C(O)CCCCCCCCCCCCCCCCCCC(=O)*; γGlu = O=C(O)[C@H](CCC(=O)[*:2])N[*:1]

T1: human amylin receptor (amylin 3(a) receptor: human calcitonin receptor plus RAMP-3) (human, UniProt P30988 25-474; O60896 24-148, limits assumed)
T1 construct: whole, on cells; the functional assay (Assay IIa) used the whole cells; also called hAmylin-R; hAmylinR
T1 sequence (looked up) 1: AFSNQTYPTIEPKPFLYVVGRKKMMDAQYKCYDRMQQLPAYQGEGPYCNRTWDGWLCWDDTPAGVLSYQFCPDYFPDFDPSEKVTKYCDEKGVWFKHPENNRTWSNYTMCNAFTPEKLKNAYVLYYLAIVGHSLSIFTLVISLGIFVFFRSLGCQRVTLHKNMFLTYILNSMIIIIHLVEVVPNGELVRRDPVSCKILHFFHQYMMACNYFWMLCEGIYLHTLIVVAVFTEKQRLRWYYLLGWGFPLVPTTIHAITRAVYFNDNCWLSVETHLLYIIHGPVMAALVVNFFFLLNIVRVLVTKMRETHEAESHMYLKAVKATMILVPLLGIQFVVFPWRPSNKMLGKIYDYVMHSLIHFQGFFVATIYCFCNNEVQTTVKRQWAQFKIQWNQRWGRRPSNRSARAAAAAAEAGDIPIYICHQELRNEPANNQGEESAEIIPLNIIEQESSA
T1 sequence (looked up) 2: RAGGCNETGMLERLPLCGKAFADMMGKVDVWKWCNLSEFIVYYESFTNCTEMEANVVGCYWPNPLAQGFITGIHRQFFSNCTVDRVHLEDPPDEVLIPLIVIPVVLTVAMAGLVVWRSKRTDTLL

T2: human calcitonin receptor (human, UniProt P30988 25-474)
T2 sequence (looked up): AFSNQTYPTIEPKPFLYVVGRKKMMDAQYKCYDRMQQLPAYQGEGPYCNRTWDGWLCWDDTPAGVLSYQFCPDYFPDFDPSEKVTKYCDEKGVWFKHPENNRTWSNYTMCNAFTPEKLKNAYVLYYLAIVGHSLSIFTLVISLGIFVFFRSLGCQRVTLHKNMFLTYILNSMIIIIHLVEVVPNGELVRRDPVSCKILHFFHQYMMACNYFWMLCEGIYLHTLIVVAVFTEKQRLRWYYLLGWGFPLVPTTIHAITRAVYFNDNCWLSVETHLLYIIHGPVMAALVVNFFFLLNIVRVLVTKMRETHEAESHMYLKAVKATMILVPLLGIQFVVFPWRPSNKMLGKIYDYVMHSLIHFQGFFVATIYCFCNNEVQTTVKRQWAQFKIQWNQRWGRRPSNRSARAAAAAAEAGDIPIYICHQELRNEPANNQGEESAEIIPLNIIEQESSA


Columns and labels:
[1] = molecular target: T1, human amylin receptor (amylin 3(a) …); test: SPA competition binding, membranes of Amylin 3(a)/CRE-luc BHK cells, displacement of 125I-rat amylin (Assay V)
Method: The binding assay was performed using scintillation proximity assay (SPA) beads (RPNQ0001) from PerkinElmer and cell membranes from the Amylin 3(a)/CRE-luc cells (as described in Assay (II)) were used. Membranes were prepared in the following way; the cells were rinsed with PBS and incubated with Versene for approximately 5 min before harvesting. The cells were flushed with PBS and the cell-suspension was centrifuged for 5 min at 1000 rpm. Cells were homogenized (ultrathurrax) in a buffer containing 20 mM Na-HEPES and 10 mM EDTA (pH 7.4) and centrifuged at 20.000 rpm for 15 min. The resulting pellet was resuspended, homogenized and centrifuged (20.000 rpm, 15 min) in a buffer containing 20 mM Na-HEPES and 0.1 mM EDTA (pH 7.4, buffer 2). The resulting pellet was resuspended in buffer 2 and protein concentration was measured (BCA protein Assay, Pierce). The homogenate was kept cold during the whole procedure. The membranes were kept at −80° C. until use. The assay was performed in a 384 well Optiplate (PerkinElmer) in a total volume of 40 ul. Membranes were mixed with SPA beads. Final concentration of membranes 35 ng/μL final and SPA beads was 0.05 mg/well. Test-compounds were dissolved in DMSO and further diluted in assay buffer (50 mM Hepes, pH 7.4, 1 mM CaCl2, 5 mM MgCl₂, 0.1% OA and 0.02% Tween20). […] The final mixture was incubated with shaking at 400 rpm for 120 min at 25° C. prior to centrifugation (1500 rpm, 10 min). Samples were analyzed on TopCounter™ (Packard). The IC₅₀ was calculated using (one site binding competition analysis) GraphPad Prism5 as a measure of receptor affinity.

[2] = molecular target: T2, human calcitonin receptor; test: cell-based or functional assay
[3] = molecular target: T1, human amylin receptor (amylin 3(a) …); test: cell-based or functional assay

IC50 [1] [nM]	Ratio hCT/hAmylin funct. (hCTR EC50 against hAmylin-R EC50) [2]	hCTR funct. EC50 [2] [nM]	hAmylin-R funct. EC50 [3] [nM]	Binder
0.1	6.6	0.327	0.05	{C20 diacid-γGlu}-KCNTATCATQRLAEFLRHSSPNFGAIPSSTNVGPNTY-NH2 (disulfide 2-7; SMILES CC[C@H](C)[C@H](NC(=O)[C@H](C)NC(=O)CNC(=O)[C@H](Cc1ccccc1)NC(=O)[C@H](CC(N)=O)NC(=O)[C@@H]1CCCN1C(=O)[C@H](CO)NC(=O)[C@H](CO)NC(=O)[C@H](Cc1c[nH]cn1)NC(=O)[C@H](CCCNC(=N)N)NC(=O)[C@H](CC(C)C)NC(=O)[C@H](Cc1ccccc1)NC(=O)[C@H](CCC(=O)O)NC(=O)[C@H](C)NC(=O)[C@H](CC(C)C)NC(=O)[C@H](CCCNC(=N)N)NC(=O)[C@H](CCC(N)=O)NC(=O)[C@@H](NC(=O)[C@H](C)NC(=O)[C@@H]1CSSC[C@H](NC(=O)[C@H](CCCCN)NC(=O)CC[C@H](NC(=O)CCCCCCCCCCCCCCCCCCC(=O)O)C(=O)O)C(=O)N[C@@H](CC(N)=O)C(=O)N[C@@H]([C@@H](C)O)C(=O)N[C@@H](C)C(=O)N[C@@H]([C@@H](C)O)C(=O)N1)[C@@H](C)O)C(=O)N1CCC[C@H]1C(=O)N[C@@H](CO)C(=O)N[C@@H](CO)C(=O)N[C@H](C(=O)N[C@@H](CC(N)=O)C(=O)N[C@H](C(=O)NCC(=O)N1CCC[C@H]1C(=O)N[C@@H](CC(N)=O)C(=O)N[C@H](C(=O)N[C@@H](Cc1ccc(O)cc1)C(N)=O)[C@@H](C)O)C(C)C)[C@@H](C)O, also called compound 32)
0.264	2.2	0.47	0.213	K([γGlu-γGlu-C20 diacid])CNTATCATQRLAEFLRHSSPNFGAIPSSTNVGSNTP-NH2 (disulfide 2-7; N-terminus assumed; SMILES CC[C@H](C)[C@H](NC(=O)[C@H](C)NC(=O)CNC(=O)[C@H](Cc1ccccc1)NC(=O)[C@H](CC(N)=O)NC(=O)[C@@H]1CCCN1C(=O)[C@H](CO)NC(=O)[C@H](CO)NC(=O)[C@H](Cc1c[nH]cn1)NC(=O)[C@H](CCCNC(=N)N)NC(=O)[C@H](CC(C)C)NC(=O)[C@H](Cc1ccccc1)NC(=O)[C@H](CCC(=O)O)NC(=O)[C@H](C)NC(=O)[C@H](CC(C)C)NC(=O)[C@H](CCCNC(=N)N)NC(=O)[C@H](CCC(N)=O)NC(=O)[C@@H](NC(=O)[C@H](C)NC(=O)[C@@H]1CSSC[C@H](NC(=O)[C@@H](N)CCCCNC(=O)CC[C@H](NC(=O)CC[C@H](NC(=O)CCCCCCCCCCCCCCCCCCC(=O)O)C(=O)O)C(=O)O)C(=O)N[C@@H](CC(N)=O)C(=O)N[C@@H]([C@@H](C)O)C(=O)N[C@@H](C)C(=O)N[C@@H]([C@@H](C)O)C(=O)N1)[C@@H](C)O)C(=O)N1CCC[C@H]1C(=O)N[C@@H](CO)C(=O)N[C@@H](CO)C(=O)N[C@H](C(=O)N[C@@H](CC(N)=O)C(=O)N[C@H](C(=O)NCC(=O)N[C@@H](CO)C(=O)N[C@@H](CC(N)=O)C(=O)N[C@H](C(=O)N1CCC[C@H]1C(N)=O)[C@@H](C)O)C(C)C)[C@@H](C)O, also called compound 13)
0.072	1.1	0.087	0.082	{C20 diacid-γGlu}-KCNTATCATQRLAEFLRHSSPNFGAIPSSTNVGSNTP-NH2 (disulfide 2-7; SMILES CC[C@H](C)[C@H](NC(=O)[C@H](C)NC(=O)CNC(=O)[C@H](Cc1ccccc1)NC(=O)[C@H](CC(N)=O)NC(=O)[C@@H]1CCCN1C(=O)[C@H](CO)NC(=O)[C@H](CO)NC(=O)[C@H](Cc1c[nH]cn1)NC(=O)[C@H](CCCNC(=N)N)NC(=O)[C@H](CC(C)C)NC(=O)[C@H](Cc1ccccc1)NC(=O)[C@H](CCC(=O)O)NC(=O)[C@H](C)NC(=O)[C@H](CC(C)C)NC(=O)[C@H](CCCNC(=N)N)NC(=O)[C@H](CCC(N)=O)NC(=O)[C@@H](NC(=O)[C@H](C)NC(=O)[C@@H]1CSSC[C@H](NC(=O)[C@H](CCCCN)NC(=O)CC[C@H](NC(=O)CCCCCCCCCCCCCCCCCCC(=O)O)C(=O)O)C(=O)N[C@@H](CC(N)=O)C(=O)N[C@@H]([C@@H](C)O)C(=O)N[C@@H](C)C(=O)N[C@@H]([C@@H](C)O)C(=O)N1)[C@@H](C)O)C(=O)N1CCC[C@H]1C(=O)N[C@@H](CO)C(=O)N[C@@H](CO)C(=O)N[C@H](C(=O)N[C@@H](CC(N)=O)C(=O)N[C@H](C(=O)NCC(=O)N[C@@H](CO)C(=O)N[C@@H](CC(N)=O)C(=O)N[C@H](C(=O)N1CCC[C@H]1C(N)=O)[C@@H](C)O)C(C)C)[C@@H](C)O, also called compound 8)
0.196	1.6	0.238	0.146	{C20 diacid-γGlu-γGlu}-KCNTATCATQRLAEFLRHSSPNFGAIPSSTNVGSNTP-NH2 (disulfide 2-7; SMILES CC[C@H](C)[C@H](NC(=O)[C@H](C)NC(=O)CNC(=O)[C@H](Cc1ccccc1)NC(=O)[C@H](CC(N)=O)NC(=O)[C@@H]1CCCN1C(=O)[C@H](CO)NC(=O)[C@H](CO)NC(=O)[C@H](Cc1c[nH]cn1)NC(=O)[C@H](CCCNC(=N)N)NC(=O)[C@H](CC(C)C)NC(=O)[C@H](Cc1ccccc1)NC(=O)[C@H](CCC(=O)O)NC(=O)[C@H](C)NC(=O)[C@H](CC(C)C)NC(=O)[C@H](CCCNC(=N)N)NC(=O)[C@H](CCC(N)=O)NC(=O)[C@@H](NC(=O)[C@H](C)NC(=O)[C@@H]1CSSC[C@H](NC(=O)[C@H](CCCCN)NC(=O)CC[C@H](NC(=O)CC[C@H](NC(=O)CCCCCCCCCCCCCCCCCCC(=O)O)C(=O)O)C(=O)O)C(=O)N[C@@H](CC(N)=O)C(=O)N[C@@H]([C@@H](C)O)C(=O)N[C@@H](C)C(=O)N[C@@H]([C@@H](C)O)C(=O)N1)[C@@H](C)O)C(=O)N1CCC[C@H]1C(=O)N[C@@H](CO)C(=O)N[C@@H](CO)C(=O)N[C@H](C(=O)N[C@@H](CC(N)=O)C(=O)N[C@H](C(=O)NCC(=O)N[C@@H](CO)C(=O)N[C@@H](CC(N)=O)C(=O)N[C@H](C(=O)N1CCC[C@H]1C(N)=O)[C@@H](C)O)C(C)C)[C@@H](C)O, also called compound 14)
0.794	3.8	1.03	0.27	{C20 diacid-γGlu}-KCNTATCATQRLAEFLRHSSPNFGAIPSSTNVGSETY-NH2 (disulfide 2-7; SMILES CC[C@H](C)[C@H](NC(=O)[C@H](C)NC(=O)CNC(=O)[C@H](Cc1ccccc1)NC(=O)[C@H](CC(N)=O)NC(=O)[C@@H]1CCCN1C(=O)[C@H](CO)NC(=O)[C@H](CO)NC(=O)[C@H](Cc1c[nH]cn1)NC(=O)[C@H](CCCNC(=N)N)NC(=O)[C@H](CC(C)C)NC(=O)[C@H](Cc1ccccc1)NC(=O)[C@H](CCC(=O)O)NC(=O)[C@H](C)NC(=O)[C@H](CC(C)C)NC(=O)[C@H](CCCNC(=N)N)NC(=O)[C@H](CCC(N)=O)NC(=O)[C@@H](NC(=O)[C@H](C)NC(=O)[C@@H]1CSSC[C@H](NC(=O)[C@H](CCCCN)NC(=O)CC[C@H](NC(=O)CCCCCCCCCCCCCCCCCCC(=O)O)C(=O)O)C(=O)N[C@@H](CC(N)=O)C(=O)N[C@@H]([C@@H](C)O)C(=O)N[C@@H](C)C(=O)N[C@@H]([C@@H](C)O)C(=O)N1)[C@@H](C)O)C(=O)N1CCC[C@H]1C(=O)N[C@@H](CO)C(=O)N[C@@H](CO)C(=O)N[C@H](C(=O)N[C@@H](CC(N)=O)C(=O)N[C@H](C(=O)NCC(=O)N[C@@H](CO)C(=O)N[C@@H](CCC(=O)O)C(=O)N[C@H](C(=O)N[C@@H](Cc1ccc(O)cc1)C(N)=O)[C@@H](C)O)C(C)C)[C@@H](C)O, also called compound 22)
